Measurements as given in IntAct's records for PubMed 31000591.

B1: T-lymphocyte activation antigen CD80 (Mus musculus), Q00609 (parent)
chain: MACNCQLMQDTPLLKFPCPRLILLFVLLIRLSQVSSDVDEQLSKSVKDKVLLPCRYNSPHEDESEDRIYWQKHDKVVLSVIAGKLKVWPEYKNRTLYDNTTYSLIILGLVLSDRGTYSCVVQKKERGTYEVKHLALVKLSIKADFSTPNITESGNPSADTKRITCFASGGFPKPRFSWLENGRELPGINTTISQDPESELYTISSQLDFNTTRNHTIKCLIKYGDAHVSEDFTWEKPPEDPPDSKNTLVLFGAGFGAVITVVVIVVIIKCFCKHRSCFRRNEASRETNNSLTFGPEEALAEQTVFL

Variants of: B1
Settings: with pd1l1_mouse Cd274, Q9EP73
pd1l1_mouse Cd274, Q9EP73, sequence (Q9EP73 whole entry): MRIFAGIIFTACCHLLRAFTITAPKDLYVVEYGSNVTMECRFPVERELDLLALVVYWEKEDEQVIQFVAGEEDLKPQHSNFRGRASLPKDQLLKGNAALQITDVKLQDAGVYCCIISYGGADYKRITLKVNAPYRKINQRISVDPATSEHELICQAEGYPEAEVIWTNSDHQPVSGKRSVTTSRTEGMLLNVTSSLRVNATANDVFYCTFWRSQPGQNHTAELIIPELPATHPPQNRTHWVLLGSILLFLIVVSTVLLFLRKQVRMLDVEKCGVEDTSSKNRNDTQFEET

Row | Variant | effect of a mutation on the interaction
1 | MACNCQLMQDTPLLKFPCPRLILLFVLLIRLSQVSSDVDEQLSKSVKDKVLLPCRYNSPHEDESEDRIYWQKHDKVVLSVIAGKLKVWPEYKNRTLYDNTTYSLIIEGLVLSDRGTYSCVVQKKERGTYEVKHLALVKLSIKADFSTPNITESGNPSADTKRITCFASGGFPKPRFSWLENGRELPGINTTISQDPESELYTISSQLDFNTTRNHTIKCLIKYGDAHVSEDFTWEKPPEDPPDSKNTLVLFGAGFGAVITVVVIVVIIKCFCKHRSCFRRNEASRETNNSLTFGPEEALAEQTVFL [L107E] | disrupting interaction strength
